First the molecules themselves.
B1: Tryptophan synthase β subunit (TrpB) from Francisella tularensis (enzyme)
chain: MSKLNAYFGEYGGQFVPQILVPALDQLEQEFIKAQADESFKQEFKELLQEYAGRPTALTKTRNIVKNTRTKLYLKREDLLHGGAHKTNQVLGQALLAKRMGKKEIIAETGAGQHGVATALACALLDLKCRVYMGAKDVERQSPNVFRMKLMGAEVIPVHSGSATLKDACNEALRDWSANYSKAHYLLGTAAGPHPFPTIVREFQRMIGEETKQQMLAKEGRLPDAVIACVGGGSNAIGMFADFIDEKNVKLIGVEPAGKGIETGEHGAPLKHGKTGIFFGMKAPLMQNSDGQIEESYSISAGLDFPSVGPQHAHLLAIGRAKYASATDDEALDAFKLLCKKEGIIPALESSHALAHALKLAYEDPNKEQLLVVNLSGRGDKDIFTVHDILKEKGEI
notes: also called FtTrpB; β subunit of FtTrpAB

The data set “crystal structure” deals with the molecule itself. The data set is described as follows: crystal structure.
The target in data set [1] is B1. The data set can be described thus: crystal structure. To be noted: both partners purified.

As for B1, in the data set “crystal structure”, the binding result was “binds”.

B2: Tryptophan synthase α subunit (TrpA) from Francisella tularensis (enzyme)
chain: SNAMTNRYTTLFANLEKRNEGAFIPFVTIGDPNKALSFEIIDTLVSSGADALELGIPFSDPLADGPTIQEANIRALESGITPKDCFDILTKIRAKYPHIPIGLLLYANLVYANGIENFYQKCLDAGVDSILIADVPAHESKEFRDIAKKVGIAQIFIAPPDASESTLKQISELGSGYTYLLSRVGVTGTETAANMPVEDVLTKLREYNAPKPVLGFGISKPEQVQQAIKAGAAGAISGSATVKIIQNNISNKQKMLNELTYFVKEMKAATLN
notes: also called FtTrpA; α subunit of FtTrpAB
Turning to B2, the binding result in data set [1] is given as “binds”.

For the origin of these results see PMC6608616 (IUCrJ, 2019).
